Measurements reported in US20240174740A1 (EYEPOINT PHARMACEUTICALS, published 2024).

B1: HC2:LC1-BRO (bispecific antibody, human IgG4 S228P, kappa)
heavy: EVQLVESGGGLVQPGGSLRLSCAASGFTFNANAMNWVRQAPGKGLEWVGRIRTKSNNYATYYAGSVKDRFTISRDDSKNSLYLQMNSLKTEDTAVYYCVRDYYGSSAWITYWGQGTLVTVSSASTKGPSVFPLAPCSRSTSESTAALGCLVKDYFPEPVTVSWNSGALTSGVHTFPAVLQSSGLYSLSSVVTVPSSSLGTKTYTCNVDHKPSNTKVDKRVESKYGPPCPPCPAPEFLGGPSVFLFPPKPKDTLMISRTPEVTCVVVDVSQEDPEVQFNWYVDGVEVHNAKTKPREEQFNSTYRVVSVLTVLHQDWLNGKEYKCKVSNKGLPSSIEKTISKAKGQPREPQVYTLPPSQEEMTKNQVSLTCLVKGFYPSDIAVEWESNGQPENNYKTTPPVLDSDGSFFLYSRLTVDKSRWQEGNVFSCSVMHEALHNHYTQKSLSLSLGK
light: DVVMTQSPSFLSASVGDRVTITCKASQHVGTAVAWYQQRPGKAPKLLIYWASTRHTGVPSRFSGSGSGTEFTLTISSLQPEDFATYFCQQYSSYPFTFGGGTKLEIKRTVAAPSVFIFPPSDEQLKSGTASVVCLLNNFYPREAKVQWKVDNALQSGNSQESVTEQDSKDSTYSLSSTLTLSKADYEKHKVYACEVTHQGLSSPVTKSFNRGECGGGGSEIVMTQSPSTLSASVGDRVIITCQASEIIHSWLAWYQQKPGKAPKLLIYLASTLASGVPSRFSGSGSGAEFTLTISSLQPDDFATYYCQNVYLASTNGANFGQGTKLTVLGGGGGSGGGGSGGGGSGGGGSEVQLVESGGGLVQPGGSLRLSCTASGFSLTDYYYMTWVRQAPGKGLEWVGFIDPDDDPYYATWAKGRFTISRDNSKNTLYLQMNSLRAEDTAVYYCAGGDHNSGWGLDIWGQGTLVTVSS
B2: HC2-BRO:LC1-BRO (bispecific antibody, human IgG4 S228P, kappa)
heavy: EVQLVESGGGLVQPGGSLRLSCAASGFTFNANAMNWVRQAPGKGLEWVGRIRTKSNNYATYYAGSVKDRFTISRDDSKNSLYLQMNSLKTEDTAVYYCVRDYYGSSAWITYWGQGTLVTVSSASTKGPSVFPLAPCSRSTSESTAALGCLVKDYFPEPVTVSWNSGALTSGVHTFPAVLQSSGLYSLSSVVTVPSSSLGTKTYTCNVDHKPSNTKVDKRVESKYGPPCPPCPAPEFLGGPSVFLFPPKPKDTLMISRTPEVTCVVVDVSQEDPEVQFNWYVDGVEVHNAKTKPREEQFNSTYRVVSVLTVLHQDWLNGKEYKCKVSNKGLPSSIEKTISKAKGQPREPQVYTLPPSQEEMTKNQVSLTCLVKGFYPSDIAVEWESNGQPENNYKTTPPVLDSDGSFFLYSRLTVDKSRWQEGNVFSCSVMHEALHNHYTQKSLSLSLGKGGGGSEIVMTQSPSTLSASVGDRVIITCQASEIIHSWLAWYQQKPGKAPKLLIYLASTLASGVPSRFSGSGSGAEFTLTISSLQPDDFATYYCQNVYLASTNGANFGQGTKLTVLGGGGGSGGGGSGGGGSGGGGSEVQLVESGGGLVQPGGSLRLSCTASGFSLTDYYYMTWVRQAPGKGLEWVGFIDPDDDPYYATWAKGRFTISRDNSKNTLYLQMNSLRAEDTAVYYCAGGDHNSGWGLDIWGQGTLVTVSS
light: B1 light
B3: HC2:LC1 (antibody, human IgG4 S228P, kappa, V domains shown)
VH: EVQLVESGGGLVQPGGSLRLSCAASGFTFNANAMNWVRQAPGKGLEWVGRIRTKSNNYATYYAGSVKDRFTISRDDSKNSLYLQMNSLKTEDTAVYYCVRDYYGSSAWITYWGQGTLVTVSS
VL: DVVMTQSPSFLSASVGDRVTITCKASQHVGTAVAWYQQRPGKAPKLLIYWASTRHTGVPSRFSGSGSGTEFTLTISSLQPEDFATYFCQQYSSYPFTFGGGTKLEIKR
notes: Human IgG4 (S228P) heavy chain HC2 (VH2) and human kappa light chain LC1 (VL1); also called humanized monoclonal antibody specific for HPTP-β
B4: HC2:LC1-AFL (bispecific antibody, human IgG4 S228P, kappa)
heavy: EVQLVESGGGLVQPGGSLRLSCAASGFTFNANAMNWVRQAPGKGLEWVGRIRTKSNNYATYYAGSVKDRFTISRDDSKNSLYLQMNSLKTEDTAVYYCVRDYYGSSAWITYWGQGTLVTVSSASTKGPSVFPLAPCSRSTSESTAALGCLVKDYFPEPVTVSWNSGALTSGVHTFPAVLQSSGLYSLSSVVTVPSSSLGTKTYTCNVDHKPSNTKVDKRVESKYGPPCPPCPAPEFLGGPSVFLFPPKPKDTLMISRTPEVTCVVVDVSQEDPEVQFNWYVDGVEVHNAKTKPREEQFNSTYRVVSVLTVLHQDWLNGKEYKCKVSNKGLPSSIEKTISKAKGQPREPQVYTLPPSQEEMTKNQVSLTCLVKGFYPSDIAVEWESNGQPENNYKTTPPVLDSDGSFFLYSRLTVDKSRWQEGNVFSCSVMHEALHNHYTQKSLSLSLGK
light: DVVMTQSPSFLSASVGDRVTITCKASQHVGTAVAWYQQRPGKAPKLLIYWASTRHTGVPSRFSGSGSGTEFTLTISSLQPEDFATYFCQQYSSYPFTFGGGTKLEIKRTVAAPSVFIFPPSDEQLKSGTASVVCLLNNFYPREAKVQWKVDNALQSGNSQESVTEQDSKDSTYSLSSTLTLSKADYEKHKVYACEVTHQGLSSPVTKSFNRGECGGGGSSDTGRPFVEMYSEIPEIIHMTEGRELVIPCRVTSPNITVTLKKFPLDTLIPDGKRIIWDSRKGFIISNATYKEIGLLTCEATVNGHLYKTNYLTHRQTNTIIDVVLSPSHGIELSVGEKLVLNCTARTELNVGIDFNWEYPSSKHQHKKLVNRDLKTQSGSEMKKFLSTLTIDGVTRSDQGLYTCAASSGLMTKKNSTFVRVHEK
B5: HC2-AFL:LC1-AFL (bispecific antibody, human IgG4 S228P, kappa)
heavy: not shown
light: B4 light
B6: HC2:LC1-ABI (bispecific antibody, human IgG4 S228P, kappa)
heavy: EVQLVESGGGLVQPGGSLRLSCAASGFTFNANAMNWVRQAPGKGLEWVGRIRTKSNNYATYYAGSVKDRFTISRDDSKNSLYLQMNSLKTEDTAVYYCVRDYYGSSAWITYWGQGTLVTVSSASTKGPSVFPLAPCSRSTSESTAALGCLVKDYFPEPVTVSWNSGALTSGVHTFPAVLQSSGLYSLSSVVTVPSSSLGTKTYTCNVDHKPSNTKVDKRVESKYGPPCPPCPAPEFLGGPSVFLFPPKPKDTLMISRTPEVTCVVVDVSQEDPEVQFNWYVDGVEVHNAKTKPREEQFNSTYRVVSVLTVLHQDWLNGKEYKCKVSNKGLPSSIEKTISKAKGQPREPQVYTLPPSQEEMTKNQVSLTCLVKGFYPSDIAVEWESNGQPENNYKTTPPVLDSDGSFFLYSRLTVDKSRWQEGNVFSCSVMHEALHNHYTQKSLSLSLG
light: DVVMTQSPSFLSASVGDRVTITCKASQHVGTAVAWYQQRPGKAPKLLIYWASTRHTGVPSRFSGSGSGTEFTLTISSLQPEDFATYFCQQYSSYPFTFGGGTKLEIKRTVAAPSVFIFPPSDEQLKSGTASVVCLLNNFYPREAKVQWKVDNALQSGNSQESVTEQDSKDSTYSLSSTLTLSKADYEKHKVYACEVTHQGLSSPVTKSFNRGECGGGGSDLDKKLLEAARAGQDDEVRILMANGADVNARDSTGWTPLHLAAPWGHPEIVEVLLKNGADVNAADFQGWTPLHLAAAVGHLEIVEVLLKYGADVNAQDKFGKTAFDISIDNGNEDLAEILQKAA
notes: The expressed entry minus its signal peptide is used here
B7: HC2-ABI:LC1-ABI (bispecific antibody, human IgG4 S228P, kappa)
heavy: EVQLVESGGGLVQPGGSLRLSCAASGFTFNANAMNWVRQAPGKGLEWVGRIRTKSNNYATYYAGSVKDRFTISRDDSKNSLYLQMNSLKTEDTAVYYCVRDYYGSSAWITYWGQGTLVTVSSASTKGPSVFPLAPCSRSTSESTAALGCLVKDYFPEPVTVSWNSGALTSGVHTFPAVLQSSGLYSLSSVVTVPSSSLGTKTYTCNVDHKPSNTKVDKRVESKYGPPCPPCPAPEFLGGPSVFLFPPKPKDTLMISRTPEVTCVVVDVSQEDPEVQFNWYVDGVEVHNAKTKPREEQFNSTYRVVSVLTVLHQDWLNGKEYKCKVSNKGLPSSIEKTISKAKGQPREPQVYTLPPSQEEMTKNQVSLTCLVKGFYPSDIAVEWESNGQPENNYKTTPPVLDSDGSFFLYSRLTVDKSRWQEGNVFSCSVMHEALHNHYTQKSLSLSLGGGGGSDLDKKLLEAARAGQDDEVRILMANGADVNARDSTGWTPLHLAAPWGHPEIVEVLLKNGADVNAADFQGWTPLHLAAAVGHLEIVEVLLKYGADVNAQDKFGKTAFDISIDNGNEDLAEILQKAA
light: B6 light
B8: HC2-AFL:LC1 (bispecific antibody, human IgG4 S228P, kappa)
heavy: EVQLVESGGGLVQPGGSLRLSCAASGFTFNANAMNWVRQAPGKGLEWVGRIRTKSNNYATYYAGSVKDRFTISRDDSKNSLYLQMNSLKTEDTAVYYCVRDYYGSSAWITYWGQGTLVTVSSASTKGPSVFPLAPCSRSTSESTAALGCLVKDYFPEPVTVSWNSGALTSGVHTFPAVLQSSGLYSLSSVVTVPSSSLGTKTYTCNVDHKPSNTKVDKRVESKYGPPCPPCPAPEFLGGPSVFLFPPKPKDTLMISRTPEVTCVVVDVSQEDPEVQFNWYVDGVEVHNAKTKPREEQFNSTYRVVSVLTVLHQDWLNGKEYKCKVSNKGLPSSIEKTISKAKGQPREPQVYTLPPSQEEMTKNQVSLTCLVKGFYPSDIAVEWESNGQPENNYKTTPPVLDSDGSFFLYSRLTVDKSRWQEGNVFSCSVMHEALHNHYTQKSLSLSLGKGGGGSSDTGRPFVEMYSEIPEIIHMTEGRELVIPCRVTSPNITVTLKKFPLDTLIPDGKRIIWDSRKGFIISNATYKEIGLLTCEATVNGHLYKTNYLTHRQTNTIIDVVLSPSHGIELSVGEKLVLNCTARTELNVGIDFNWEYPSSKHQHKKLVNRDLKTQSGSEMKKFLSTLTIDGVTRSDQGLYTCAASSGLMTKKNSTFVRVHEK
light: DVVMTQSPSFLSASVGDRVTITCKASQHVGTAVAWYQQRPGKAPKLLIYWASTRHTGVPSRFSGSGSGTEFTLTISSLQPEDFATYFCQQYSSYPFTFGGGTKLEIKRTVAAPSVFIFPPSDEQLKSGTASVVCLLNNFYPREAKVQWKVDNALQSGNSQESVTEQDSKDSTYSLSSTLTLSKADYEKHKVYACEVTHQGLSSPVTKSFNRGEC
B9: HC2-RAN:LC1 (bispecific antibody, human IgG4 S228P, kappa)
heavy: not shown
light: B8 light
notes: also called HC2-RBZ:LC1; tetravalent bispecific antibody with ranibizumab-derived scFv on the heavy chain C-termini
B10: HC2-ABI:LC1 (bispecific antibody, human IgG4 S228P, kappa)
heavy: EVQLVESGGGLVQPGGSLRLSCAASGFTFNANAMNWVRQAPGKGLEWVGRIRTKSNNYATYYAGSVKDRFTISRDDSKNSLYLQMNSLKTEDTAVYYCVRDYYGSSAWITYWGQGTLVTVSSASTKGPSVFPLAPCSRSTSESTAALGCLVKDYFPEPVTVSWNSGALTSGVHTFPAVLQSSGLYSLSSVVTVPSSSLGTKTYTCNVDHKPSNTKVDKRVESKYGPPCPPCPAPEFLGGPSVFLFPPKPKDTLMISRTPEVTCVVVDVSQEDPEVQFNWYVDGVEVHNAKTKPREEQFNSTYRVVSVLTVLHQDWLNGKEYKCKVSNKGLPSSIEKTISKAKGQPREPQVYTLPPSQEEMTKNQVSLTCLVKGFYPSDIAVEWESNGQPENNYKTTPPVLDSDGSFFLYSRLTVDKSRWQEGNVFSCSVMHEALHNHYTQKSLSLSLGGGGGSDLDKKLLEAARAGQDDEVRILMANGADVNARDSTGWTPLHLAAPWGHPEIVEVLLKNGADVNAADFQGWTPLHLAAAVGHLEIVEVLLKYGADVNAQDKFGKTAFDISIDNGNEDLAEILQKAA
light: B8 light
B11: HC2-BRO:LC1 (bispecific antibody, human IgG4 S228P, kappa)
heavy: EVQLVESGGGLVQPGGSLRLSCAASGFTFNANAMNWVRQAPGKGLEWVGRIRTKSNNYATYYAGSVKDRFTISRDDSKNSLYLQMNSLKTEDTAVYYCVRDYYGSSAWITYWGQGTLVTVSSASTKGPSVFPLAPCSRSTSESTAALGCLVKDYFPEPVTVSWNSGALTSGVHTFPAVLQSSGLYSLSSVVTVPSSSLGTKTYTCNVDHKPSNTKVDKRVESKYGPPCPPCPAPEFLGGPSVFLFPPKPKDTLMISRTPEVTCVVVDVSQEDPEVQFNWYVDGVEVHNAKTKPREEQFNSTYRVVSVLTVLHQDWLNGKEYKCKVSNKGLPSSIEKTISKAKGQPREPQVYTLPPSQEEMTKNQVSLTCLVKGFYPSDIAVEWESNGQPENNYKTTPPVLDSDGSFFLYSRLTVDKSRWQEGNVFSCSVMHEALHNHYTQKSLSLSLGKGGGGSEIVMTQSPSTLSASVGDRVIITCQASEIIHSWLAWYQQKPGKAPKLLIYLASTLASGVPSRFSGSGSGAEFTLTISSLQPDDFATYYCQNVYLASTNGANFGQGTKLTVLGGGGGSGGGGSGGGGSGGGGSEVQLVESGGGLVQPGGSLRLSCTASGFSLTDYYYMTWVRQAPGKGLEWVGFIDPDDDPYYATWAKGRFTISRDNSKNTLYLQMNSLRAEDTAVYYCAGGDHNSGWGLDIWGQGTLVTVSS
light: B8 light

What was measured:
[1] = biological target: T1, VEGF (UniProt P15692-4 27-191, limits assumed); assay: Biacore SPR, scouting at 10 nM analyte; antibody immobilised on CM5 chip, VEGF as analyte
T1 construct: also called vascular endothelial growth factor
T1 sequence (P15692 other isoform, or with tags, fused parts or gaps limits assumed): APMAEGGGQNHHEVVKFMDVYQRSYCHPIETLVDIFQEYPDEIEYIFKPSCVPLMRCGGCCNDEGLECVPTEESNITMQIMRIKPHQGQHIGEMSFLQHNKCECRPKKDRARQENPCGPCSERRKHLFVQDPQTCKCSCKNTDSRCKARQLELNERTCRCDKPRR
Method: (§1) The assay buffer contained 10 mM HEPES buffer (pH 7.4), 150 mM NaCl, 3 mM EDTA, and 0.05% P20 (polyoxyethylenesorbitan). […] The conjugation buffer contained 10 mM sodium acetate buffer (pH 5). A flow rate of 5 μL/minute was used for capturing ligand. A flow rate of 30 μL/minute was used for kinetic analysis.
(§2) For analysis of binding of the antibodies to VEGF, the antibodies were immobilized on the surface of the chip by direct immobilization using EDC/NHS coupling chemistry on flow cell 2 of the CM5 chip. Unoccupied sites were blocked with 1M ethanolamine. The analyte (VEGF) was flowed over the chip at a single analyte concentration at a time. The binding of analyte to the ligand was monitored in real time to obtain on (kₐ) and off (kd) rates. The equilibrium constant (KD) was calculated from the observed kₐ and kd.
(§3) Chi square analysis was carried out between the actual sensorgram and the sensorgram generated from the BIAnalysis software to confirm the accuracy of the analysis; values of 1-2 were considered accurate and below 1 highly accurate.

[2] = biological target: T2, poly-histidine tagged HPTP-β extracellular domain (ECD) 1/2 (human, UniProt P23467 23-730, limits assumed); assay: Biacore SPR, scouting at 10 nM analyte; His-tagged HPTP-β 1/2 ECD captured by anti-His, antibody as analyte
T2 construct: domain: extracellular domain (ECD) 1/2; Captured on the Biacore chip through goat anti-His antibody; also called His-tagged ligand HPTP-β 1/2 ECD; not shown: poly-histidine tag
T2 sequence (looked up): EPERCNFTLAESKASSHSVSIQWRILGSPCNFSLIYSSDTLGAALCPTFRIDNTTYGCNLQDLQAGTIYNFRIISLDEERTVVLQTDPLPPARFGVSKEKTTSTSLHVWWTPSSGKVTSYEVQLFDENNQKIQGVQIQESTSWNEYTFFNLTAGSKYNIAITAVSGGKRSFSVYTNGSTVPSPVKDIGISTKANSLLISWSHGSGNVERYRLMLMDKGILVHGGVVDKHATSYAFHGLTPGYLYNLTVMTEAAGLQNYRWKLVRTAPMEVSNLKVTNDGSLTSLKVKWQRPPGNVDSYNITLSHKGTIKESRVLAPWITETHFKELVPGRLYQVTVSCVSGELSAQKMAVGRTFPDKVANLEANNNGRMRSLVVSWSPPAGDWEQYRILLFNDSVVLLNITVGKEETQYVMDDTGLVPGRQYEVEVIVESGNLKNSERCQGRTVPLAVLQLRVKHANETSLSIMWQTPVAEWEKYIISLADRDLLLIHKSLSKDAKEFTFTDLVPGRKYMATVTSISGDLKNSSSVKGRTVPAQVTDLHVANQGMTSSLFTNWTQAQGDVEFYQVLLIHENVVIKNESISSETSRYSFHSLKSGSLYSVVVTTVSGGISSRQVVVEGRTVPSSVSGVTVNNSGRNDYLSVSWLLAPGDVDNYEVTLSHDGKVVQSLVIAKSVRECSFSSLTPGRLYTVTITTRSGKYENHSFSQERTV
Method: as §1
(§4) For analysis of binding of antibodies to HPTP-β, poly-histidine tagged HPTP-β extracellular domain (ECD) 1/2 was immobilized on a chip surface via anti-His antibodies. Goat anti-His antibody was first immobilized on the surface of the chip by direct immobilization using EDC/NHS (N-ethyl-N′-(3-dimethyl aminopropyl carbodiimide)/N-hydroxy succinamide) coupling chemistry on flow cell 2 of the CM5 (Carboxymethylated dextran coated) chip. Unoccupied sites were blocked with 1M ethanolamine. The His-tagged ligand HPTP-β 1/2 ECD was captured at a response unit (RU) of 50. The analyte (antibody) was flowed over the chip at a single analyte concentration at a time. The binding of analyte to the ligand was monitored in real time to obtain on (kₐ) and off (kd) rates. The equilibrium constant (KD) was calculated from the observed kₐ and kd.
as §3

[3] = biological target: T1, VEGF; assay: Biacore SPR, scouting; antibody immobilised on CM5 chip, VEGF as analyte
Method: as §2, §3

[4] = biological target: T2, poly-histidine tagged HPTP-β …; assay: Biacore SPR, full kinetics at 0-10 nM analyte; His-tagged HPTP-β 1/2 ECD captured by anti-His, antibody as analyte
Method: as §1, §4
(§5) Chi square analysis was carried out between the actual sensorgram and the sensorgram generated from the BNAnalysis software to confirm the accuracy of the analysis; values of 1-2 were considered accurate and below 1 highly accurate.

[5] = biological target: T1, VEGF; assay: Biacore SPR, full kinetics at 0-10 nM analyte; antibody immobilised on CM5 chip, VEGF as analyte
Method: as §1, §2, §5

[6] = biological target: T2, poly-histidine tagged HPTP-β …; assay: Biacore SPR, scouting at 10 nM analyte; His-tagged HPTP-β 1/2 ECD captured by anti-His, antibody as analyte; scouting experiment at a single ligand concentration (Table 46), not full kinetics
Description: as §4, §3

Binder | Kd [1] | Kd [2] | binding result [3] | Kd [4] | Kd [5] | Kd [6]
B1 | 0.0351 pM | 309 pM |  |  |  | 
B2 | 1.79 pM | 3.5 pM |  |  |  | 
B3 |  | 73.2 pM | no binding (tested: 10 nM of analyte) | 121 pM |  | 
B4 | 825 pM | 467 pM |  |  |  | 
B5 | 557 pM | 69.4 pM |  |  |  | 
B6 | 519 pM | 61 pM |  |  |  | 
B7 | 680 pM | 205 pM |  |  |  | 
B8 | 350 pM | 320 pM |  | 219 pM | 46.3 pM | 
B9 |  |  |  |  |  | 0.586 pM
B10 | 0.11 pM | 122 pM |  | 1.03 pM | 0.04 pM | 
B11 | 0.112 pM | 325 pM |  | 154 pM | 0.218 pM | 
